Target: T1, Staphylococcus aureus protein A (SpA), commercial wildtype (Staphylococcus aureus, UniProt A0A0H3K686 37-477, limits assumed)
T1 construct: also called wildtype SpA; antigen
Assay: Bio-Layer Interferometry (ForteBio Octet Red 96), 20 nM antigen; BLI, 20 nM antigen

T1 sequence (A0A0H3K686 37-477 limits assumed): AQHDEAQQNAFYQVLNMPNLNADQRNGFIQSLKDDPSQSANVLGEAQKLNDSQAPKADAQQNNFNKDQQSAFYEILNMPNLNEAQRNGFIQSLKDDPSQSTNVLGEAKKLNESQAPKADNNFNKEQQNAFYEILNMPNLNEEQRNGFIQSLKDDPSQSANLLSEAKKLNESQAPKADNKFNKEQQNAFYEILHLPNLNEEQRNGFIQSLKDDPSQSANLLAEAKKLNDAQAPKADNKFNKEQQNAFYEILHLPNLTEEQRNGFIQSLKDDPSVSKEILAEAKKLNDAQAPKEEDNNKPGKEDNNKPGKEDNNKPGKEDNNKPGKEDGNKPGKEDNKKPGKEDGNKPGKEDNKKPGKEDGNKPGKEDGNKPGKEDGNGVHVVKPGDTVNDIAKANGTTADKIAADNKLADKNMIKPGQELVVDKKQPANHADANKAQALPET

B1: PA21-G3 Ab (antibody, human IgG3, kappa)
heavy: EVQLVESGGGVVQPGGSLRLSCAASGFTFSSYGMHWVRQAPGKGLEWVSGISGDAGSTYYADSVKGRFTISRDNSKNTLYLQMNSLRAEDMAVYYCARVMNYYGPGSAFDYWGQGTLVTVSSASTKGPSVFPLAPCSRSTSGGTAALGCLVKDYFPEPVTVSWNSGALTSGVHTFPAVLQSSGLYSLSSVVTVPSSSLGTQTYTCNVNHKPSNTKVDKRVELKTPLGDTTHTCPRCPEPKSCDTPPPCPRCPEPKSCDTPPPCPRCPEPKSCDTPPPCPRCPAPELLGGPSVFLFPPKPKDTLMISRTPEVTCVVVDVSHEDPEVQFKWYVDGVEVHNAKTKPREEQYNSTFRVVSVLTVLHQDWLNGKEYKCKVSNKALPAPIEKTISKTKGQPREPQVYTLPPSREEMTKNQVSLTCLVKGFYPSDIAVEWESSGQPENNYNTTPPMLDSDGSFFLYSKLTVDKSRWQQGNIFSCSVMHEALHNRFTQKSLSLSPGK
light: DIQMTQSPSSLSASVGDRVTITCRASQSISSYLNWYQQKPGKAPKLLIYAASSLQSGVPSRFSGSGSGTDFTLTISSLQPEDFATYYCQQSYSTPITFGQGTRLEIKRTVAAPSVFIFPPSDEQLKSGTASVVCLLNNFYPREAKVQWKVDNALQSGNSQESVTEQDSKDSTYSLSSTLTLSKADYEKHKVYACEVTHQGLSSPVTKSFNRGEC
notes: Human IgG3
Kd: < 1 pM

B2: PA32-G3 Ab (antibody, human IgG3, kappa)
heavy: EVQLVETGGGLAQPGGSLRLSCAASGFIFSDYYMDWVRQAPGKGPEWVASIKADGSETHYVDSVKGRFTISRDNAKNSLYLQMNSLRVEDTAVYYCGRDPGRRFDYWGQGTLVTVSSASTKGPSVFPLAPCSRSTSGGTAALGCLVKDYFPEPVTVSWNSGALTSGVHTFPAVLQSSGLYSLSSVVTVPSSSLGTQTYTCNVNHKPSNTKVDKRVELKTPLGDTTHTCPRCPEPKSCDTPPPCPRCPEPKSCDTPPPCPRCPEPKSCDTPPPCPRCPAPELLGGPSVFLFPPKPKDTLMISRTPEVTCVVVDVSHEDPEVQFKWYVDGVEVHNAKTKPREEQYNSTFRVVSVLTVLHQDWLNGKEYKCKVSNKALPAPIEKTISKTKGQPREPQVYTLPPSREEMTKNQVSLTCLVKGFYPSDIAVEWESSGQPENNYNTTPPMLDSDGSFFLYSKLTVDKSRWQQGNIFSCSVMHEALHNRFTQKSLSLSPGK
light: not shown
notes: Human IgG3
Kd: < 1 pM

B3: PA15-G3 Ab (antibody, human IgG3, kappa)
heavy: EVQLVETGGGLVRPGGSLRLSCAASGLTFSTFAMNWVRQAPGKGLEWVSSISGSGGSTYYADSVKGRFTISRDNAKNTVYLQMNSLRAEDTAVYYCARDFNWDSGTMDLWGQGTTVTVSPASTKGPSVFPLAPCSRSTSGGTAALGCLVKDYFPEPVTVSWNSGALTSGVHTFPAVLQSSGLYSLSSVVTVPSSSLGTQTYTCNVNHKPSNTKVDKRVELKTPLGDTTHTCPRCPEPKSCDTPPPCPRCPEPKSCDTPPPCPRCPEPKSCDTPPPCPRCPAPELLGGPSVFLFPPKPKDTLMISRTPEVTCVVVDVSHEDPEVQFKWYVDGVEVHNAKTKPREEQYNSTFRVVSVLTVLHQDWLNGKEYKCKVSNKALPAPIEKTISKTKGQPREPQVYTLPPSREEMTKNQVSLTCLVKGFYPSDIAVEWESSGQPENNYNTTPPMLDSDGSFFLYSKLTVDKSRWQQGNIFSCSVMHEALHNRFTQKSLSLSPGK
light: not shown
notes: Human IgG3
Kd: < 1 pM

B4: PA7.2-G3 Ab (antibody, human IgG3, kappa)
heavy: EVQLVESRGGLVQPGGSLRLSCAASGFTFSNYAMSWVRQAPGKGLEWVSTISGSDGGTYYADSVKGRFTISRDNSGNTVYLQMNSLREDDTAVYYCARVGLSAPVTFFDFWGQGTLVTVSSASTKGPSVFPLAPCSRSTSGGTAALGCLVKDYFPEPVTVSWNSGALTSGVHTFPAVLQSSGLYSLSSVVTVPSSSLGTQTYTCNVNHKPSNTKVDKRVELKTPLGDTTHTCPRCPEPKSCDTPPPCPRCPEPKSCDTPPPCPRCPEPKSCDTPPPCPRCPAPELLGGPSVFLFPPKPKDTLMISRTPEVTCVVVDVSHEDPEVQFKWYVDGVEVHNAKTKPREEQYNSTFRVVSVLTVLHQDWLNGKEYKCKVSNKALPAPIEKTISKTKGQPREPQVYTLPPSREEMTKNQVSLTCLVKGFYPSDIAVEWESSGQPENNYNTTPPMLDSDGSFFLYSKLTVDKSRWQQGNIFSCSVMHEALHNRFTQKSLSLSPGK
light: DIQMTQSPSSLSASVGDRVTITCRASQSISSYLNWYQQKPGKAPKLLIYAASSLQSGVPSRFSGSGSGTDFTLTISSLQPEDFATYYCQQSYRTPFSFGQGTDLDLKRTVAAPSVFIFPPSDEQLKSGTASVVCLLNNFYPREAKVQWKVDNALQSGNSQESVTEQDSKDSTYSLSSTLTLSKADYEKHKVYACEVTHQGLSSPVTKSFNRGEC
notes: Human IgG3
Kd: < 1 pM

B5: PA37-G3 Ab (antibody, human IgG3, kappa)
heavy: EVQLLESGGGLVQPGGSRRLSCATSGLSFSSYAMNWVRQAPGKGLEWVSAISGSGDITHYADSVKGRLTISRDNSKNTVYLQMNSLRGEDTAVYYCAKGPWLAPGGWFDPWGQGTLVTVSSASTKGPSVFPLAPCSRSTSGGTAALGCLVKDYFPEPVTVSWNSGALTSGVHTFPAVLQSSGLYSLSSVVTVPSSSLGTQTYTCNVNHKPSNTKVDKRVELKTPLGDTTHTCPRCPEPKSCDTPPPCPRCPEPKSCDTPPPCPRCPEPKSCDTPPPCPRCPAPELLGGPSVFLFPPKPKDTLMISRTPEVTCVVVDVSHEDPEVQFKWYVDGVEVHNAKTKPREEQYNSTFRVVSVLTVLHQDWLNGKEYKCKVSNKALPAPIEKTISKTKGQPREPQVYTLPPSREEMTKNQVSLTCLVKGFYPSDIAVEWESSGQPENNYNTTPPMLDSDGSFFLYSKLTVDKSRWQQGNIFSCSVMHEALHNRFTQKSLSLSPGK
light: not shown
notes: Human IgG3
Kd: < 1 pM

B6: PA27-G3 Ab (antibody, human IgG3, kappa)
heavy: QVQLVESGGGLVQPGGSLRLSCAASGFTFSKYGMSWVRQAPGKGLEWVSTISGSGFTTYYADSVKGRFTISRDDFKNTLYLQMNSLRAEDTAVYYCAKDGWDYEDFFGSWGQGTLVTVSSASTKGPSVFPLAPCSRSTSGGTAALGCLVKDYFPEPVTVSWNSGALTSGVHTFPAVLQSSGLYSLSSVVTVPSSSLGTQTYTCNVNHKPSNTKVDKRVELKTPLGDTTHTCPRCPEPKSCDTPPPCPRCPEPKSCDTPPPCPRCPEPKSCDTPPPCPRCPAPELLGGPSVFLFPPKPKDTLMISRTPEVTCVVVDVSHEDPEVQFKWYVDGVEVHNAKTKPREEQYNSTFRVVSVLTVLHQDWLNGKEYKCKVSNKALPAPIEKTISKTKGQPREPQVYTLPPSREEMTKNQVSLTCLVKGFYPSDIAVEWESSGQPENNYNTTPPMLDSDGSFFLYSKLTVDKSRWQQGNIFSCSVMHEALHNRFTQKSLSLSPGK
light: DIQMTQSPSSLSASVGDRVTITCRASQSISSYLNWYQQKPGKAPKLLIYAASSLQSGVPSRFSGSGSGTEFTLTITNLQPEDFGTYYCQQSYAFPYTFGQGTRLEIKRTVAAPSVFIFPPSDEQLKSGTASVVCLLNNFYPREAKVQWKVDNALQSGNSQESVTEQDSKDSTYSLSSTLTLSKADYEKHKVYACEVTHQGLSSPVTKSFNRGEC
notes: Human IgG3
Kd: < 1 pM
